Target: purified MN gp120 (clade B), P05877

B1: Calcium-dependent serine protease, complement component 1s (C1s) of CHO cells (protein)
chain: EPTMHGEILSPNYPQAYPNEIEKTWDIEVPEGFGIRLYFTHLDMELSENCEYDSVQIISGGVEEGRLCGQRTSKNANSPIVEEFQMPYNKLQVIFRSDFSNEERFTGFAAYYAAVDINECTDFTDVPCSHFCNNFIGGYFCSCPPEYFLHDDMRNCGVNCSGNVFTALIGEISSPNYPSPYPENSRCEYQILLEEGFQVVVTIRREDFDVEPADSEGNCQDSLLFAAKNQLFGPYCGNGFPGPLTIETHSNTLDIVFQTDLTEQRKGWKLRYHGDPIPCPKEITANSVWVPEKAKYVFKDVVKISCVDGFEVVEGNVGSAFFYSTCQSNGQWSNSRLQCQPVDCGIPEPIQNGKVDDPENTVFGSVIQYSCEEPYYYMEHEEHGGEYRCAANGSWVNDELGIELPKCVPVCGVPTEPIALQQRIFGGFPAKIQSFPWQVFFESPRAGGALIDEYWVLTAAHVVEGNSDPSMYVGTTFVRMEHLANAQRLTAERVIIHPGWKPADDLETRTNFDNDIALVQLKDPVKMGPTVSPICLPGTSSEYNPSKNDLGLISGWGRTEKRNIVPQLKGAKLPVTSLEKCQQVKGENSKVRADDYVFTSNMICAGEKGVDSCQGDSGGAFALQVPNVKDPKFYVAGLVSWGKKCGTYGIYTKVKNYMDWIVKTMQENSVPSKD
proteolysis of gp120 in 10x concentrated CHO supernatant, western blot, with or without EGTA: inhibition of proteolysis of gp120 in CHO cell supernatant with EGTA, a calcium-chelating agent suggested that C1s is the major protease responsible for gp120 cleavage
